# B1: SEA-CD70 (nonfucosylated h1F6) (antibody, INN chains, looked up, V domains shown, part only)
# VH: QVQLVQSGAEVKKPGASVKVSCKASGYTFTNYGMNWVRQAPGQGLKWMGWINTYTGEPTYADAFKGRVTMTRDTSISTAYMELSRLRSDDTAVYYCARDYGDYGMDYWGQGTTVTVSS
# VL: DIVMTQSPDSLAVSLGERATINCRASKSVSTSGYSFMHWYQQKPGQPPKLLIYLASNLESGVPDRFSGSGSGTDFTLTISSLQAEDVAVYYCQHSREVPWTFGQGTKVEIK
# modifications: nonfucosylated afucosylated
# B2: SGN-70 (fucosylated h1F6) (antibody, INN chains, looked up, V domains shown, part only)
# VH: B1 VH
# VL: B1 VL
# What was measured:
# [1] = molecular target: hCD64 P2 mFc.67 N297A LALA-PG avi (human) (UniProt P12314); assay: BLI; biotinylated avi-tagged receptor-monomeric Fc fusion on streptavidin biosensor, antibody titrated as analyte; 1:1 global fit
# hFcγR 2b (human) = hFcγR 2b (human) (UniProt P31994); assay: as above
# [2] = molecular target: hCD70 Biotin E131664-01 (human) (UniProt P32970); assay: BLI; antibody as probe on AHC (anti-Fc) biosensor, hCD70 Biotin titrated as analyte; '37 C' printed with the probe; 1:1 global fit
# [3] = molecular target: hFcRN mFc.67 N297A IHH avi biotin (human) (UniProt P55899); assay: BLI at pH 6.09 (row 'hFcRN pH 6.09'); biotinylated hFcRN-monomeric Fc fusion on streptavidin biosensor, antibody titrated as analyte; 1:1 global fit
# [4] = molecular target: hFcRN mFc.67 N297A IHH avi biotin (human) (UniProt P55899); assay: BLI at pH 7.46 (row 'hFcRN pH 7.46'); biotinylated hFcRN-monomeric Fc fusion on streptavidin biosensor, antibody titrated as analyte; 1:1 global fit
# [5] = molecular target: hFcgR 3a V158 mFc.67 N297A LALAPG avi biotin (human) (UniProt P08637); assay: BLI; biotinylated FcγR fusion on streptavidin biosensor, antibody titrated; 1:1 global fit
# [6] = molecular target: high affinity human FcγRIIIa receptor (158V) overexpressed on CHO cells (human) (UniProt P08637); assay: flow cytometry on CHO cells overexpressing human FcγRIIIa 158V (CHO/hCD16); detection with anti-human IgG-PE
# [7] = molecular target: cynomolgus FcγRIIIa receptor overexpressed on CHO cells (cynomolgus) (UniProt Q8SPW2); assay: flow cytometry on CHO cells overexpressing cynomolgus FcγRIIIa (CHO/cynoCD16); detection with anti-human IgG-PE
# [8] = molecular target: hFcgR 2a H131 mFc.67 N297A LALAPG avi biotin (human) (UniProt P12318); assay: BLI; biotinylated avi-tagged receptor-monomeric Fc fusion on streptavidin biosensor, antibody titrated as analyte; 1:1 global fit
# [9] = molecular target: hFcgR 2a R131 mFc.67 N297A LALAPG avi biotin (human) (UniProt P12318); assay: as above
# [10] = molecular target: hFcgR 3a F158 mFc.67 N297A LALAPG avi biotin (human) (UniProt P08637); assay: as above
# [11] = molecular target: hCD70 Biotin E131664-01 (human) (UniProt P32970); assay: BLI; antibody as probe on AHC (anti-Fc) biosensor, hCD70 Biotin titrated as analyte; '37 C' printed with the probe; 1:1 global fit [Cont.]
# Sequence of hFcγR 2b (human) (P31994 43-217): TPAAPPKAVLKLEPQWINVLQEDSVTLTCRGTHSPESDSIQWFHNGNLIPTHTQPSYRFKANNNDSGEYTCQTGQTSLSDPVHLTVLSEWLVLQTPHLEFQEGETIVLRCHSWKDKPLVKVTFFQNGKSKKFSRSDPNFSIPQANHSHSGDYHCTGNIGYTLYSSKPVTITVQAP
# Sequence of hCD70 Biotin E131664-01 (human) (P32970 39-193 limits assumed): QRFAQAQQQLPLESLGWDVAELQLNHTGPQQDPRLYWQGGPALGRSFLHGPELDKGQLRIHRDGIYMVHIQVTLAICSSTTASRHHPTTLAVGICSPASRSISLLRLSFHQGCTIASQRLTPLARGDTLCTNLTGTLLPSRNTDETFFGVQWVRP
# Sequence of high affinity human FcγRIIIa receptor (158V) overexpressed on CHO cells (human) (P08637 17-254 F176V): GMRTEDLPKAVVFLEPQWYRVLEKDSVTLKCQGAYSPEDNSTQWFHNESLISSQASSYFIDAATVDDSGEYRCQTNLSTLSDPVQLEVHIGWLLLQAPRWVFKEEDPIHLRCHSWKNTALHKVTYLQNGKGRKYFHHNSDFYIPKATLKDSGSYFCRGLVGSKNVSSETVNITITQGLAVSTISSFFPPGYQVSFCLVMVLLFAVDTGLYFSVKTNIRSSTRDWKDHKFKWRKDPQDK
# Sequence of cynomolgus FcγRIIIa receptor overexpressed on CHO cells (cynomolgus) (Q8SPW2 17-254): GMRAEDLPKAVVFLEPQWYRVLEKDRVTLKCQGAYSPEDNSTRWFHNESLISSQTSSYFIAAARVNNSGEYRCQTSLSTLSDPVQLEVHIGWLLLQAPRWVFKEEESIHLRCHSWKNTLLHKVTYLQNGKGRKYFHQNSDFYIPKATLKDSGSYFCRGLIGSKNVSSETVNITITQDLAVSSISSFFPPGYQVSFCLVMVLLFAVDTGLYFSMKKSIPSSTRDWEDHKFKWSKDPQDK
binder,measurement,setting,value
B1,Kd,[1],0.00042 µM
same,Kd,hFcγR 2b (human),27 µM
same,Kd,[2],0.00024 µM
same,Kd,[3],0.019 µM
same,Kd,[4],16.7 µM
B2,Kd,[5],0.86 µM
same,EC50 (read off the curve),[6],1 mg/L
same,EC50 (read off the curve),[7],1 mg/L
same,Kd,[1],0.00066 µM
same,kon,[1],770000 M⁻¹ s⁻¹
same,Kd,[8],2.6 µM
same,kon,[8],100000 M⁻¹ s⁻¹
same,Kd,[9],4.5 µM
same,kon,[9],77000 M⁻¹ s⁻¹
same,Kd,[10],5.3 µM
same,kon,[10],27000 M⁻¹ s⁻¹
same,Kd,hFcγR 2b (human),25 µM
same,kon,hFcγR 2b (human),26000 M⁻¹ s⁻¹
same,Kd,[2],0.00023 µM
same,kon,[11],270000 M⁻¹ s⁻¹
same,Kd,[3],0.017 µM
same,kon,[3],720000 M⁻¹ s⁻¹
same,Kd,[4],15 µM
same,kon,[4],42000 M⁻¹ s⁻¹
